The target of data set [1] is T1, glutamine synthetase (TcGS) (Trypanosoma cruzi, UniProt Q4CN04).
T1 construct: gene Tc00.1047053503405.10; recombinant His6-tagged TcGS (TcCLB.503405.10 starting at base pair 123), expressed in E. coli
Put plainly: enzyme inhibition kinetics of purified recombinant TcGS. The class given is biochemical.

In data set [2] the test system is Nc1ncnc2c1ncn2[C@@H]1O[C@H](COP(=O)(O)OP(=O)(O)OP(=O)(O)O)[C@@H](O)[C@H]1O. Briefly: purified protein. To be noted: Mg2+.
For another data set, the system named is N[C@@H](CCC(=O)O)C(=O)O. Put plainly: purified protein. The settings on record: Mg2+.
Data set [3] concerns the target recombinant Trypanosoma cruzi glutamine synthetase (TcGS), His6-tagged (Trypanosoma cruzi). Briefly: SEC; analytical size-exclusion chromatography of recombinant TcGS (elutions of the Ni-NTA column); mass estimated from a calibration of the column; TcGS followed in the fractions by Bradford, dot-blot, ELISA and GS activity.

Take `CS(=N)(=O)CCC(N)C(=O)O` (centres unmarked) [MS, Methionine sulfoximine]: in data set [1], the Ki is 3.89 ± 0.04 µM.
In the case of “glutamine synthetase (TcGS) (Trypanosoma cruzi strain CL Brener)”, in data set [2], the Km was 380 ± 100 µM, the kcat is 396 ± 18.2 s⁻¹ and the kcat/Km is 1.05e+06 M⁻¹ s⁻¹. Also, in the data set with N[C@@H](CCC(=O)O)C(=O)O, the Km was found to be 440 ± 60 µM, the kcat was 392 ± 9.5 s⁻¹ and the kcat/Km worked out at 890000 M⁻¹ s⁻¹.
As to “recombinant Trypanosoma cruzi glutamine synthetase (TcGS), His6-tagged (enzyme)”, in data set [3], the stoichiometry N is 8.

In general, Ki refers to the dissociation constant of the complex between target and ligand, obtained from inhibition or displacement. One may read the Km as the substrate concentration at which the rate is half of its maximum. For orientation: kcat means the number of substrate molecules converted per active site and unit of time at saturation. A word on the kcat/Km: it is the turnover number divided by the Michaelis constant. As usually defined, the stoichiometry N is the number of molecules, sites or subunits per partner or assembly.

The values above are taken from PMC5779702, “The glutamine synthetase of Trypanosoma cruzi is required for its resistance to ammonium accumulation and evasion of the parasitophorous vacuole during host-cell infection” (PLoS Neglected Tropical Diseases, 2018).
